For the assay, the target named is Cav1(62-178) P132L (UniProt Q03135). Description: AUC.

For “Cav1(62-178) P132L (from UniProt Q03135 62-178) (domain or fragment)”, the Kd (usually the free concentration of one partner at which half of the binding sites on the other are occupied at equilibrium, for simple one-to-one binding) was < 15 nM and the stoichiometry N – broadly, the number of molecules, sites or subunits per partner or assembly – worked out at 2.

(Values after publication PMC3396432.)
